The text below walks through data of paper PMC3170560.

Substrate in the series: C=CC1=C(C)C2=Cc3c(C=C)c(C)c4[n]3[Fe]([Cl])[n]3c(c(C)c(CCC(=O)O)c3=CC3=NC(=C4)C(C)=C3CCC(=O)O)=CC1=N2
Kind of series: purified protein. To be noted: haemin 1-20 μM, NADPH added to start, 0.1 M HEPES-NaOH pH 7.2.

B1: mBnHO1 (mature BnHO1, haem oxygenase-1) (Brassica napus) (protein)
chain: ATAAEKQKKKRYPGESKGFVEEMRFVAMRLHTKEQAKEGEKETKAPEERPVAKWEPTVEGYLRFLVDSKLVYDTLEEIIGQSTFPTYAEFKNTGLERAEKLDTDLKWFKEQGYEIPEPTATGKKYSQYLKDLADKDPPSFICHFYNIYFAHSAGGRMIGRKVAERILDNRELEFYKWDGDLSELLQNVREKLNKVAEEWTREEKNHCLVGDRESFKYSGEILRLILS
On to B1, for which the Km (as a rule, the substrate concentration at which the rate is half of its maximum) worked out at 2.52 µM.
